The data set “cryo-electron tomography” concerns the molecule itself. Kind of data set: cryo-electron tomography.
The data set “negative stain EM” deals with the molecule itself. Kind of data set: negative stain EM.

B1: Drosophila dynamin Shibire (Shi), wild type (natural protein)
chain: MDSLITIVNKLQDAFTSLGVHMQLDLPQIAVVGGQSAGKSSVLENFVGKDFLPRGSGIVTRRPLILQLINGVTEYGEFLHIKGKKFSSFDEIRKEIEDETDRVTGSNKGISNIPINLRVYSPHVLNLTLIDLPGLTKVAIGDQPVDIEQQIKQMIFQFIRKETCLILAVTPANTDLANSDALKLAKEVDPQGVRTIGVITKLDLMDEGTDARDILENKLLPLRRGYIGVVNRSQKDIEGRKDIHQALAAERKFFLSHPSYRHMADRLGTPYLQRVLNQQLTNHIRDTLPGLRDKLQKQMLTLEKEVEEFKHFQPGDASIKTKAMLQMIQQLQSDFERTIEGSGSALVNTNELSGGAKINRIFHERLRFEIVKMACDEKELRREISFAIRNIHGIRVGLFTPDMAFEAIVKRQIALLKEPVIKCVDLVVQELSVVVRMCTAKMSRYPRLREETERIITTHVRQREHSCKEQILLLIDFELAYMNTNHEDFIGFANAQNKSENANKTGTRQLGNQVIRKGHMVIQNLGIMKGGSRPYWFVLTSESISWYKDEDEKEKKFMLPLDGLKLRDIEQGFMSMSRRVTFALFSPDGRNVYKDYKQLELSCETVEDVESWKASFLRAGVYPEKQETQENGDESASEESSSDPQLERQVETIRNLVDSYMKIVTKTTRDMVPKAIMMLIINNAKDFINGELLAHLYASGDQAQMMEESAESATRREEMLRMYRACKDALQIIGDVSMATVSSPLPPPVKNDWLPSGLDNPRLSPPSPGGVRGKPGPPAQSSLGGRNPPLPPSTGRPAPAIPNRPGGGAPPLPGGRPGGSLPPPMLPSRVSGAVGGAIVQQSGANRYVPESMRGQVNQAVGQAAINELSNAFSSRFK
As to B1, in the data set “cryo-electron tomography”, the binding result was “binds”.

B2: non-tagged human dynamin 1 (hDyn1) (natural protein)
chain: MGNRGMEDLIPLVNRLQDAFSAIGQNADLDLPQIAVVGGQSAGKSSVLENFVGRDFLPRGSGIVTRRPLVLQLVNATTEYAEFLHCKGKKFTDFEEVRLEIEAETDRVTGTNKGISPVPINLRVYSPHVLNLTLVDLPGMTKVPVGDQPPDIEFQIRDMLMQFVTKENCLILAVSPANSDLANSDALKVAKEVDPQGQRTIGVITKLDLMDEGTDARDVLENKLLPLRRGYIGVVNRSQKDIDGKKDITAALAAERKFFLSHPSYRHLADRMGTPYLQKVLNQQLTNHIRDTLPGLRNKLQSQLLSIEKEVEEYKNFRPDDPARKTKALLQMVQQFAVDFEKRIEGSGDQIDTYELSGGARINRIFHERFPFELVKMEFDEKELRREISYAIKNIHGIRTGLFTPDMAFETIVKKQVKKIREPCLKCVDMVISELISTVRQCTKKLQQYPRLREEMERIVTTHIREREGRTKEQVMLLIDIELAYMNTNHEDFIGFANAQQRSNQMNKKKTSGNQDEILVIRKGWLTINNIGIMKGGSKEYWFVLTAENLSWYKDDEEKEKKYMLSVDNLKLRDVEKGFMSSKHIFALFNTEQRNVYKDYRQLELACETQEEVDSWKASFLRAGVYPERVGDKEKASETEENGSDSFMHSMDPQLERQVETIRNLVDSYMAIVNKTVRDLMPKTIMHLMINNTKEFIFSELLANLYSCGDQNTLMEESAEQAQRRDEMLRMYHALKEALSIIGDINTTTVSTPMPPPVDDSWLQVQSVPAGRRSPTSSPTPQRRAPAVPPARPGSRGPAPGPPPAGSALGGAPPVPSRPGASPDPFGPPPQVPSRPNRAPPGVPSRSGQASPSRPESPRPPFDL
For the protein B2, the binding result in the data set “negative stain EM” was “binds”.

B3: N-terminal His-tagged human dynamin 1 (hDyn1) (natural protein)
chain: B2 chain
With B3, the binding result in the data set “cryo-electron tomography” is recorded as “binds”.

Values taken from paper doi:10.1101/586461 (bioRxiv, 2019).
